According to patent publication US10274499B2, “SH2 domain variants” (THE UNIVERSITY OF WESTERN ONTARIO, priority 2012, dated 2019):

Tests used:
[1] = tested on: seven fluorescein-labeled pTyr-containing peptides; assay: in-solution fluorescence polarization binding assay, set of seven peptides; settings: average over seven peptides, relative to the wild type of the same SH2 domain
Procedure: Each peptide was synthesized on the TentaGel amide resin (INTAVIS Inc.) and N-terminally labeled with fluorescein using NHS-fluorescein (Thermo Fisher Scientific). Each of the 13 variant and the wild-type SH2 domain was produced by overexpression in the Escherichia coli BL21(DE3) strain cultured in LB media (EMD Chemicals). Expression was induced by 0.3 mM isopropyl β-D-1-thiogalactopyranoside (IPTG), and the cell culture was incubated for 5 hours at 37° C. The cells were harvested by centrifuge, and broken on ice, in buffer solution containing 20 mM sodium phosphate, 0.1 M NaCl, 20 mM imidazole, 1 mg/ml lysozyme and 1% Triton-X 100, adjusted at pH 7.8. Affinity purification was performed with the Ni-NTA agarose resin (Qiagen Inc.), according to the manufacturer's instruction. […] Measurements of fluorescence polarization were conducted by titrating the SH2 domain concentration, while keeping the peptide concentration constant. Kd values were calculated with the GraphPad Prism software, by assuming the one-site binding model (GraphPad Software).
The determined Kd values of interaction between the 14 SH2 domains (including the wild-type) and seven peptides were listed in FIG. 7(a). […]
Fluorescence polarization assay was conducted to determine Kd values of the interaction between the wild-type or variant Src SH2 domain and seven fluorescein-labeled pTyr-containing peptides (FIG. 9a).

EGFR = target: T1, EGFR (Homo sapiens, UniProt P00533); assay: immunoprecipitation of GFP-fused SH2 domains with EGFR in HEK 293 cells; assay type: cell-based; settings: GFP-fusion expressed in HEK 293 cells, EGF 100 ng/ml, anti-GFP and anti-EGFR antibodies
T1 construct: endogenous in cells; host or cells: HEK 293
From the text: The three variant SH2 domains mentioned in the previous sentence were dubbed as 8V/10A/15L-substituted SH2 domains, or the TrM SH2 domains, in the following descriptions, as well as in FIG. 11 and FIG. 12. The wild-type (Wt) and TrM SH2 domains, subcloned into the pEGFPC2 vector, were expressed in the HEK 293 cells as a GFP-fusion protein. Methods used in this and the following sections are described below.
Anti-GFP rabbit polyclonal antibody was purchased from Sigma-Aldrich. Anti-EGFR rabbit polyclonal antibody was purchased from Millipore. Anti-p44/42 MAPK (Erk1/2) mouse monoclonal antibody, and anti-phospho-p44/42 MAPK (Thr202/Tyr204) mouse monoclonal antibody were purchased from Cell Signaling. HEK 293 cells were grown in Dulbecco's modification of Eagle's medium (DMEM, Sigma-Aldrich) supplemented with 10% fetal bovine serum (FBS, SAFC Biosciences), 50 units/ml penicillin and 50 μg/ml streptomycin (GIBCO Invitrogen Corp.) in a humidified atmosphere of 5% CO2 in air at 37° C. EGF (Invitrogen) at a final concentration of 100 ng/ml was added to the medium at the indicated time point. Transient transfections were carried out with jet-PEI (PolyPlus-Transfection; Illkirch, France) according to manufacturer's instruction. […]

Row | average affinity increase, Kd[wild-type] divided by Kd[variant] [1] [fold] | binding to EGFR (immunoprecipitation) (EGFR) | Substance
1 | 1.4 |  | T8V: variant Fyn SH2 domain, Thr at position 8 to Val; SEQ ID NO:5 (RKDAERQLLSFGNPRGTFLIRESETVKGAYSLSIRDWDDMKGDHVKHYK; Synthetic construct T8V)
2 |  | Weak binding | wild-type Grb2 SH2 domain: polypeptide between Met55 and Pro158 of the human Grb2 [reference compound]
3 |  | did not show detectable binding | wild-type Src SH2 domain: human Src SH2 domain between Asp144 and Lys252; SEQ ID NO:18 [reference compound]
